# Results as given in patent US20200016512A1, “AFFINITY […] FOR PURIFYING IMMUNOGLOBULIN” (KANEKA CORPORATION, priority 2017, published 2020).
# Tested on: Fab
# Experiment: Residual binding activity to Fab after alkali treatment (alkali resistance)
# Type: physicochemical, human
# Details: 0.2 mL peptide solution + 0.1 mL 45 mM sodium hydroxide, 25° C., 2 hours; compared with SpG mutant SEQ ID NO: 20
# Description: Each peptide was subjected to dialysis using ultrapure water and the concentration thereof was adjusted to obtain 4 μM aqueous solution. To 0.2 mL of the aqueous solution, 0.1 mL corresponding to a half amount of the aqueous solution of 45 mM sodium hydroxide aqueous was added. The mixture was incubated at 25° C. for 2 hours and then neutralized by 0.1 mL of 50 mM acetic acid (pH 3.0). After it was confirmed that the mixture was neutralized by using a pH test paper, the mixture was diluted to 20 times by the standard buffer so that the concentration was adjusted to 100 nM.
# The peptide solution prepared as the above was defined as a sample before alkali treatment at 0 hr, and 0.1 mL of the above sodium hydroxide aqueous solution and 0.1 mL of 50 mM acetic acid (pH 3.0) were preliminarily mixed and the mixture was added to the sample. The final concentration of the peptide in the solution was 100 nM.
# A binding to an immunoglobulin by a similar method to Example 2(2) using Octet and the peptide solutions before and after the alkali treatment prepared in the above (1) was measured. An Fc was used instead of IgG in this experiment in order to simplify a binding pattern. […]
# A residual binding activity to a Fab of the Fab-binding activity-enhanced peptides of SEQ ID NOs: 11 and 13 after the alkali resistance was also evaluated. […]
row,Substance,Alkali resistance: residual binding activity to a Fab after the alkali treatment (FIG. 3B)
1,"SEQ ID NO: 13: Fab-binding activity-enhanced immunoglobulin-binding peptide, partly mutated sequence of SEQ ID NOs: 2 to 7 (TTYRLVIKGVTLTGYTATIAVDAATAEQTLRQFANDNGITGEWAYDTATKTFTVTE; novel peptide)",similarly improved
2,"SEQ ID NO: 11: Fab-binding activity-enhanced immunoglobulin-binding peptide, partly mutated sequence of SEQ ID NOs: 2 to 7 (TTYKLIVKGNTLTGYTTTIAVDAETAEKALKQFANENGVYGEWSYDDATKTFTVTE; novel peptide)",similarly improved
